Among the data in a protein production outcome set (Wang et al. 2014) are protein production values, retold here.

The series can be described thus: label from the status in PepcDB records.

In the case of “VYRRILLTVDEDDNTSSERAFRYATTLAHDYDVPLGICSVLESEDINIFDSLTPSKIQAKRKHVEDVVAEYVQLAEQRGVNQVEPLVYEGGDVDDVILEQVIPEFKPDLLVTGADTEFPHSKIAGAIGPRLARKAPISVIVVR”, the protein production result was “failed”.

Regarding “WFMPFDNWLYQLQNADPVEISSSGFEIAVIDYSKDGSESGEYSPEEIKIMVDAGVVPVAYVNIGQAEDYRFYWKESWYTNTPEWLGEEDPAWPGNYFVKYWYNEWKEIVFSYLDRVIDQGFKGIYLDRIDSFEYWAQEGVISRRSAARKMINFVLEIAEYVRERKPDMLIIPQNGENILDFDDGQLASTVSGWAVENLFYLKTIPLEENETKSRLEYLIRLNRKGKFILSVDYVDDGSDSFENISRILDYYEKAKRNGCIPYAARSDLELDEMNVIEGIQPPEALKDYESRTYR”, the protein production entry is recorded as “not failed”.

In the case of “WMLGIPIGGLLAFILGGAALSVFHFGMDYTNRNEFCYSCHIGMDTIVEEYQASPHFKNAQGVIAATCSDCHVPREFFAKIALKIGATADIYHKLKGDITLDNFEAEHRPRLAAEVTQQFIENKSKQCRYCHSVDKMDFEAQGRTVARRHQMMESRDQSCIDCHAGIAHHLPISLDSPET”, the protein production result is “failed”.

For “WPGRDRLRHLEPLRSITQLAALLANELEASVSPDTPLLLAGHSMGAQVAFETCRLLEQRGLAPQGLIISGCHAPHLHSERQLSHRDDADFIAELIDIGGCSPELRENQELMSLFLPLLRADFYATESYHYDSPDVCPPLRTPALLLCGSHDREASWQQVDAWRQWLSHVTGPVVIDGDHFYPIQQARSFFTQIVRHFP”, the protein production entry is “failed”.

For the sequence “WPIWTRRSDGTLSFANAAYARATDASDAADAIGRNLELLDSGDRAALARALGDGYEYSGRLPIVVGGERRYYDVRALKVSGGSAGIAVDATETAALGAALERMADAHRRTLDQLSSGVAVFDAQRRLSFYNDSYRKLWDL”, the protein production result is recorded as “failed”.

For the sequence “WYENYRWFFTSEGFLVIGGRTAEMNEEIVAKHLESLDLFFHTQTPGAPAVILKRGQEAGEESIREAAEFAATYSALWKEGKHAGEVYYVLPEQVSKSAKAGEYLPK”, the protein production entry is listed as “failed”.

Regarding “YALTEGEDYLVLDKPIPQEQPGKIEVLEFFGYFCVHCHHFDPLLLKLGKALPSDTYLRTEHVVWRPEMLGLARMAAAVKLSGLKYQANSAVFKAVYEQKIRLENRAVAGKWALSQKGFDGKKLMRAYDSPEAAAVALKMQKLTEQYGIDSTPTVIVGGKYRVIFNNGFDGGVHTIKELVAK”, the protein production result is “failed”.

With “YDFIDNPGFDESHSLTEMREAFLSFFEDRDHERIDPYPVAANRWRDDVLLTQASIYDFQPLVTSGTTPPPANPLCISQPCIRMQDIDNVGKTGRHTMAFEMMAHHAFNAREDIEDPEQYAYEGEVYWKNETVQYCDELFEEMGANLDEIVYIEDPWVGGGNAGPAIEVIYRGAELATLVFMSMEQDSDGEYEMKDGNRYSPMDTYIVDTGYGLERWTWMSQGTPTVYEAVYPDMIAFLKDNAGIELTDEEERIVHEAAKLAGRMDI”, the protein production result is on record as “failed”.

For the sequence “YDQVTRIIGVAKDITDQIEASESLRDSEQRYRMLAESISDVIFSTDSKLSLNYVSPSVHAVLGYDVEWIFQNGWQSTIANPQQLSGIYTLMDRVSKALDKPEQLAQLRSQVQTQLFLFDCLRADGRKIPIELRLVLVWDEHGAFEGVLGVGRDISQQRRAEKDLRMAATVFEHSTS”, the protein production entry was “failed”.

Consider “YENFIIAGHKEPDGDCIGSCLAMSFFLKRKNKNCILMSAGPFKRTEIKEYEHLFTDKLKISDKINPKTTGLIILDCSNFDRVGEIAELISGFNYIIIDHHATNTEKSDTSLIMPEAPSTTYLIQSIIEEIGEKLTKEEADALFFGLCTDTGFFRHLDAGSAEVFAHASRLIEAG”, for which the protein production result is listed as “failed”.

On to “YGNVWPWKSYEHVVAIAGGIGIPPIKALIEDMQGHTSLDKLTVLYGARSPSDIVYRSEIETWKEEMDFRITVDKGDENWRGHVGVVTTLVPEIKEYNHGAAFVIGPPVMMKFSVKSLLDAGFAEDNIYLSLERRMECG”, for which the protein production entry is on record as “failed”.

As for “YLGPQGTFTHQAAVNAAQELARFEPQGFDLMPMDDVPQILDAAQHGDGWGIVAWENNVEGYVVPNLDALIDAKDLVGFARVGVNVEFDAYVAQGADPAEARIATAHPHGLAQCKRFIAEHRLSTQPATSNAAACRDLIPGEIAFGPAICGELYDITRIGTAIQDYQGAATDFLVLSPRAE”, the protein production result is “failed”.

As to “YLKLVRIYTKPKGQLPDYTSPVVLPYSRTTVEDFCMKIHKNLIKEFKYALVWGLSVKHNPQKVGKDHTLEDEDVIQIVKK”, the protein production entry is “not failed”.

As for “YLSPMAHWLMPVAGGPNIEKMLNLLPALFSLYPEENNPQLLISKVYLPRQSQRYDPFYDLKNLAERWSEQLQRPIIPIPVCSTSIADALSDLAEMRECAAIVLGASREGLLKNVIHGNLPTQIASQTNTTVFIFRGPVDSPNEEAIVPPLAPDFGLDE”, the protein production result is on record as “failed”.

In the case of “YNPWRNPEGALKRRNTVLNNMLVMGYLSQSQYDEEVARPLGVVSKPTLGPAKFPDFLDIVRRQLRAEYQESDLTNQGL”, the protein production result is “failed”.

Consider “YRALFEHAIDGIFIMDAEGHYLDVNPAICSAIGYTRDEFLALDWGVLSRGVDSGWAAASLARIVGGEPLREERTVWTRNGDQLTVELSAHLLPDGKILGIARDVS”, for which the protein production entry was “not failed”.

Regarding “YTCSFVGHFSAGKSTLINLLIEQDILPSSPVPTTSNTAIVSVSDNHDIIANLPNQTYAKLSNYDEVREMNRQNVDVESVEINFQSAKFENGFTLQDTPGVDSNVASHQSITEQYMYTSNMIFYTVDYNHVQSELNFKFMKHINDVGIPVVFIINQIDKHQDDELS”, the protein production entry was “failed”.

Take “YTDESGLSELVNAAGEKLQDLELMGQKNAVRDFFKELIADSGKVAYGESQVRANLEINSVDVLLLSEDLRAERVTTKCSVCGYENKWTRRWKPGEPAPAAGNCPKCGSSLEVTDVTDIVDEFSELADKSNAKVVFVSTDFDEGSQLMNAFGGIAAILRYNTGV”: the protein production entry is reported as “not failed”.

As for “YTEQPIDLVPTQPLPNASFDNFKLTCSNTKFADDLNQMTGFTKPASRELSVTFFPDLNGDVVAIDYRHYSASFKKGAKLLHKPIVWHINQATTKTTFKPNTWCLRCLWSTKPVDT”, the protein production result was “not failed”.

“YTPMSDLGQQGLFDITRTLLQQPDLASLSEALSQLVKRSALADSAGIVLWQAQSQRAQYYATRENGRPVEYEDETVLAHGPVRRILSRPDALHCNFHEFTETWPQLAASGLYPEFGHCCLLPLAAEGRIFGGCEFIRQEDR”: the protein production result is recorded as “failed”.

On to “YVTSQIHAKGSDLAKLMQIAALKGNEEVLDVATGGGHVANAFAPFVKKVVAFDLTEDILKVARAFIEGNGHQQVEYVQGDAEQLPFTDERFHIVTCRIAAHHFPNPASFVSEAYRVLKKGGQLLLVDNSAPENDAFDVFYNYVEKERDYSHHRAWKKSDWLKMLEEAGFELEELHCFHKTFIFEDWCDRMNVTTEKKQELSDFIKSKPTEYYQKFKIVVEDGRVYSFRGESILMKARKPTVKNKGSS”, for which the protein production entry is “not failed”.
